Measured values as given in article PMC11862924, “Phenylpyrazoles as Inhibitors of the m6A RNA-Binding Protein YTHDF2”.

T1: YTHDF2 YTH domain (UniProt Q9Y5A9 383-553)
T1 sequence: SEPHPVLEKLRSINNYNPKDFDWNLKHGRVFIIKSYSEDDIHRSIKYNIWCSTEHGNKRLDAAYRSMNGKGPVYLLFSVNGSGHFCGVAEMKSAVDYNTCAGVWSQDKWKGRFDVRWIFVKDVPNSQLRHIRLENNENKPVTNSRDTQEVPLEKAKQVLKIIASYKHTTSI

T2: YTHDC2 YTH domain (UniProt Q9H6S0 1285-1424)
T2 sequence: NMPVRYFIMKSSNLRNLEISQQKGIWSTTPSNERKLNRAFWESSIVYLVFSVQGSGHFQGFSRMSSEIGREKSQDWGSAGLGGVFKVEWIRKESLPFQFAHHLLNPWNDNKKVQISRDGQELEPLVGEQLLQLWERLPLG

T3: YTHDF3 YTH domain (UniProt Q7Z739 391-585)
T3 sequence: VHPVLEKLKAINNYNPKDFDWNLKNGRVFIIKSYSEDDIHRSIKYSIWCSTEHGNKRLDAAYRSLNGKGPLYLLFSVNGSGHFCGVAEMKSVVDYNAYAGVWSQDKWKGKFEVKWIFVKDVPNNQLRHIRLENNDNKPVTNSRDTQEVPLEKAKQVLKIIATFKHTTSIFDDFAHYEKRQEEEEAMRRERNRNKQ

T4: YTHDF1 YTH domain (UniProt Q9BYJ9 375-552)
T4 sequence: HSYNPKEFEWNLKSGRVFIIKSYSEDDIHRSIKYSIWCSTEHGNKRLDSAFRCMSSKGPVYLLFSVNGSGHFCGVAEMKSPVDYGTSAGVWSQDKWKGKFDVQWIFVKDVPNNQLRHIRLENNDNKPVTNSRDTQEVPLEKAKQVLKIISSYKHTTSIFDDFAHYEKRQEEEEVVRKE


What was measured:
YTHDF2 YTH domain = molecular target: T1, YTHDF2 YTH domain; conditions: protein: recombinant; tags: N-terminal His6 and GST; label: none
YTHDC1 YTH domain = YTHDC1 YTH domain (UniProt Q96MU7 345-509); experiment: EMSA; 20 nM RNA; FP: 20 mM HEPES/KOH pH 7.5, 50 mM NaCl, 0.005% Tween 20, 1 mM GSH (DTT), 4 C; EMSA: 20 mM HEPES pH 8.2, 50 mM NaCl, 0.05% Triton X-100, 5% glycerol, 4 C, 0.5x T
YTHDC2 YTH domain = molecular target: T2, YTHDC2 YTH domain; conditions: protein: recombinant
YTHDF3 YTH domain = molecular target: T3, YTHDF3 YTH domain; conditions: protein: recombinant
YTHDF1 YTH domain = molecular target: T4, YTHDF1 YTH domain; conditions: protein: recombinant

| Binder | IC50 (YTHDF2 YTH domain) [nM] | binding result (YTHDC1 YTH domain) | binding result (YTHDC2 YTH domain) | binding result (YTHDF3 YTH domain) | binding result (YTHDF1 YTH domain) |
| --- | --- | --- | --- | --- | --- |
| UUCUUCUGUGGACUGUG (ssRNA, m6A at position 12) [unlabeled m6A RNA probe] | 115 | – | – | – | – |
| UUCUUCUGUGGACUGUG (ssRNA, m6A at position 12) [FAM-17mer m6A RNA probe] | – | binds | binds | binds | binds |
